Data taken from the supplement of paper PMC10567573.

B1: CAMK2A (parent)
chain: ILLVGYPPFWDEDQHRLYKQIKAG

Variants of: B1
Assay: protein stability index of a GFP-peptide fusion (GPS, HEK-293T) (PSI 1-6); higher = more stable
Settings: c terminus: a fixed tail appended
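Also: lentivirally expressed fusions sorted by FACS into six bins by GFP to DsRed ratio, PSI derived from sequencing read proportions per bin multiplied by bin number.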

| Variant | protein stability index |
| --- | --- |
| ILLVGYPPFWDEDQHRDYKQIKAG | 2.06 |
| ILLVGYPPFWDEDQHREYKQIKAG | 2.09 |
| ILLVGYPPFWDEDQHRGYKQIKAG | 1.58 |
| ILLVGYPPFWDEDQHRAYKQIKAG | 1.62 |
| ILLVGYPPFWDEDQHRMYKQIKAG | 2.47 |
| ILLVGYPPFWDEDQHRQYKQIKAG | 2.3 |
| ILLVGYPPFWDEDQHRPYKQIKAG | 2.03 |
| ILLVGYPPFWDEDQHRSYKQIKAG | 1.8 |
| ILLVGYPPFWDEDQHRFYKQIKAG | 2.12 |
| ILLVGYPPFWDEDQHRNYKQIKAG | 1.31 |
| ILLVGYPPFWDEDQHRYYKQIKAG | 2.38 |
| ILLVGYPPFWDEDQHRRYKQIKAG | 2.12 |
| ILLVGYPPFWDEDQHRVYKQIKAG | 2.21 |
| ILLVGYPPFWDEDQHRWYKQIKAG | 2.09 |
| ILLVGYPPFWDEDQHRIYKQIKAG | 2.1 |
| ILLVGYPPFWDEDQHRKYKQIKAG | 1.74 |
| ILLVGYPPFWDEDQHRTYKQIKAG | 2.14 |
| ILLVGYPPFWDEDQHRCYKQIKAG | 1.19 |
| ILLVGYPPFWDEDQHRHYKQIKAG | 1.75 |
| ILLVGYPPFWDEDQHRLYKRIKAG | 2 |
| ILLVGYPPFWDEDQHRLYKMIKAG | 2.36 |
| ILLVGYPPFWDEDQHRLYKFIKAG | 2.69 |
| ILLVGYPPFWDEDQHRLYKPIKAG | 1.39 |
| ILLVGYPPFWDEDQHRLYKDIKAG | 1.9 |

| Variant | protein stability index |
| --- | --- |
| ILLVGYPPFWDEDQHRLYKNIKAG | 1.83 |
| ILLVGYPPFWDEDQHRLYKEIKAG | 2.18 |
| ILLVGYPPFWDEDQHRLYKHIKAG | 2.86 |
| ILLVGYPPFWDEDQHRLYKGIKAG | 2.1 |
| ILLVGYPPFWDEDQHRLYKIIKAG | 1.96 |
| ILLVGYPPFWDEDQHRLYKKIKAG | 1.56 |
| ILLVGYPPFWDEDQHRLYKTIKAG | 1.62 |
| ILLVGYPPFWDEDQHRLYKWIKAG | 2.02 |
| ILLVGYPPFWDEDQHRLYKCIKAG | 1.94 |
| ILLVGYPPFWDEDQHRLYKAIKAG | 1.78 |
| ILLVGYPPFWDEDQHRLYKSIKAG | 1.86 |
| ILLVGYPPFWDEDQHRLYKLIKAG | 2.6 |
| ILLVGYPPFWDEDQHRLYKVIKAG | 3.11 |
| ILLVGYPPFWDTDQHRLYKQIKAG | 1.96 |
| ILLVGYPPFWDLDQHRLYKQIKAG | 1.95 |
| ILLVGYPPFWDIDQHRLYKQIKAG | 2.76 |
| ILLVGYPPFWDVDQHRLYKQIKAG | 2.56 |
| ILLVGYPPFWDNDQHRLYKQIKAG | 1.42 |
| ILLVGYPPFWDADQHRLYKQIKAG | 1.49 |
| ILLVGYPPFWDFDQHRLYKQIKAG | 2.03 |
| ILLVGYPPFWDHDQHRLYKQIKAG | 2.29 |
| ILLVGYPPFWDDDQHRLYKQIKAG | 2.27 |
| ILLVGYPPFWDRDQHRLYKQIKAG | 2.23 |
| ILLVGYPPFWDYDQHRLYKQIKAG | 2.57 |

| Variant | protein stability index |
| --- | --- |
| ILLVGYPPFWDWDQHRLYKQIKAG | 2.32 |
| ILLVGYPPFWDMDQHRLYKQIKAG | 3.3 |
| ILLVGYPPFWDQDQHRLYKQIKAG | 3.3 |
| ILLVGYPPFWDKDQHRLYKQIKAG | 1.92 |
| ILLVGYPPFWDPDQHRLYKQIKAG | 2.84 |
| ILLVGYPPFWDEDQHRLYKQEKAG | 1.92 |
| ILLVGYPPFWDEDQHRLYKQYKAG | 1.84 |
| ILLVGYPPFWDEDQHRLYKQPKAG | 1.42 |
| ILLVGYPPFWDEDQHRLYKQKKAG | 1.65 |
| ILLVGYPPFWDEDQHRLYKQVKAG | 1.89 |
| ILLVGYPPFWDEDQHRLYKQSKAG | 1.82 |
| ILLVGYPPFWDEDQHRLYKQAKAG | 1.79 |
| ILLVGYPPFWDEDQHRLYKQRKAG | 2.05 |
| ILLVGYPPFWDEDQHRLYKQFKAG | 3.06 |
| ILLVGYPPFWDEDQHRLYKQDKAG | 1.99 |
| ILLVGYPPFWDEDQHRLYKQWKAG | 2.4 |
| ILLVGYPPFWDEDQHRLYKQLKAG | 2.31 |
| ILLVGYPPFWDEDQHRLYKQQKAG | 2.28 |
| ILLVGYPPFWDEDQHRLYKQTKAG | 1.73 |
| ILLVGYPPFWDEDQHRLYKQMKAG | 1.72 |
| ILLVGYPPFWDEDQHRLYKQGKAG | 1.54 |
| ILLVGYPPFWDEDQHRLYKQNKAG | 2.19 |
| ILLVGYPPFWDEDQHRLYKQCKAG | 2.35 |
| ILLVGYPPFWDEDQHRLYKQHKAG | 1.47 |

| Variant | protein stability index |
| --- | --- |
| ILLVGYPPFWDEDQHRLYEQIKAG | 1.87 |
| ILLVGYPPFWDEDQHRLYWQIKAG | 2.65 |
| ILLVGYPPFWDEDQHRLYQQIKAG | 2.79 |
| ILLVGYPPFWDEDQHRLYSQIKAG | 2.63 |
| ILLVGYPPFWDEDQHRLYNQIKAG | 3.09 |
| ILLVGYPPFWDEDQHRLYRQIKAG | 1.36 |
| ILLVGYPPFWDEDQHRLYGQIKAG | 3.31 |
| ILLVGYPPFWDEDQHRLYTQIKAG | 1.72 |
| ILLVGYPPFWDEDQHRLYHQIKAG | 1.38 |
| ILLVGYPPFWDEDQHRLYFQIKAG | 2.66 |
| ILLVGYPPFWDEDQHRLYYQIKAG | 3.14 |
| ILLVGYPPFWDEDQHRLYPQIKAG | 1.73 |
| ILLVGYPPFWDEDQHRLYAQIKAG | 1.65 |
| ILLVGYPPFWDEDQHRLYVQIKAG | 2.9 |
| ILLVGYPPFWDEDQHRLYMQIKAG | 3.5 |
| ILLVGYPPFWDEDQHRLYIQIKAG | 2.67 |
| ILLVGYPPFWDEDQHRLYDQIKAG | 2.82 |
| ILLVGYPPFWDEDQHRLIKQIKAG | 2.21 |
| ILLVGYPPFWDEDQHRLPKQIKAG | 1.71 |
| ILLVGYPPFWDEDQHRLEKQIKAG | 2.38 |
| ILLVGYPPFWDEDQHRLGKQIKAG | 2.79 |
| ILLVGYPPFWDEDQHRLHKQIKAG | 1.89 |
| ILLVGYPPFWDEDQHRLSKQIKAG | 1.95 |
| ILLVGYPPFWDEDQHRLTKQIKAG | 3.2 |

| Variant | protein stability index |
| --- | --- |
| ILLVGYPPFWDEDQHRLNKQIKAG | 2.05 |
| ILLVGYPPFWDEDQHRLMKQIKAG | 2.16 |
| ILLVGYPPFWDEDQHRLDKQIKAG | 1.97 |
| ILLVGYPPFWDEDQHRLWKQIKAG | 2.45 |
| ILLVGYPPFWDEDQHRLAKQIKAG | 2.09 |
| ILLVGYPPFWDEDQHRLVKQIKAG | 1.25 |
| ILLVGYPPFWDEDQHRLFKQIKAG | 1.4 |
| ILLVGYPPFWDEDQHRLRKQIKAG | 2.45 |
| ILLVGYPPFWDEDQHRLLKQIKAG | 2.48 |
| ILLVGYPPFWDEDQHRLCKQIKAG | 1.73 |
| ILLVGYPPFWDEDQHRLQKQIKAG | 1.51 |
| ILLVGYPPFWDEDQHRLKKQIKAG | 2.31 |
| ILLVGYPPFWDEDGHRLYKQIKAG | 3.47 |
| ILLVGYPPFWDEDPHRLYKQIKAG | 3.6 |
| ILLVGYPPFWDEDTHRLYKQIKAG | 2.98 |
| ILLVGYPPFWDEDFHRLYKQIKAG | 2.52 |
| ILLVGYPPFWDEDRHRLYKQIKAG | 2.78 |
| ILLVGYPPFWDEDVHRLYKQIKAG | 2.89 |
| ILLVGYPPFWDEDAHRLYKQIKAG | 2.65 |
| ILLVGYPPFWDEDSHRLYKQIKAG | 2.59 |
| ILLVGYPPFWDEDYHRLYKQIKAG | 2.54 |
| ILLVGYPPFWDEDHHRLYKQIKAG | 2.67 |
| ILLVGYPPFWDEDEHRLYKQIKAG | 2.01 |
| ILLVGYPPFWDEDWHRLYKQIKAG | 1.57 |

| Variant | protein stability index |
| --- | --- |
| ILLVGYPPFWDEDNHRLYKQIKAG | 2.33 |
| ILLVGYPPFWDEDKHRLYKQIKAG | 1.68 |
| ILLVGYPPFWDEDDHRLYKQIKAG | 2.32 |
| ILLVGYPPFWDEDLHRLYKQIKAG | 2.35 |
| ILLVGYPPFWDEDIHRLYKQIKAG | 2.05 |
| ILLVGYPPFWWEDQHRLYKQIKAG | 2.44 |
| ILLVGYPPFWMEDQHRLYKQIKAG | 2.52 |
| ILLVGYPPFWNEDQHRLYKQIKAG | 2.59 |
| ILLVGYPPFWVEDQHRLYKQIKAG | 2.18 |
| ILLVGYPPFWPEDQHRLYKQIKAG | 2.35 |
| ILLVGYPPFWSEDQHRLYKQIKAG | 2.62 |
| ILLVGYPPFWHEDQHRLYKQIKAG | 2.29 |
| ILLVGYPPFWLEDQHRLYKQIKAG | 2.39 |
| ILLVGYPPFWIEDQHRLYKQIKAG | 3.45 |
| ILLVGYPPFWREDQHRLYKQIKAG | 1.21 |
| ILLVGYPPFWKEDQHRLYKQIKAG | 2.46 |
| ILLVGYPPFWTEDQHRLYKQIKAG | 1.85 |
| ILLVGYPPFWYEDQHRLYKQIKAG | 1.61 |
| ILLVGYPPFWDEVQHRLYKQIKAG | 2.54 |
| ILLVGYPPFWDEHQHRLYKQIKAG | 2.2 |
| ILLVGYPPFWDELQHRLYKQIKAG | 3.98 |
| ILLVGYPPFWDECQHRLYKQIKAG | 2.36 |
| ILLVGYPPFWDETQHRLYKQIKAG | 2.2 |
| ILLVGYPPFWDESQHRLYKQIKAG | 2.06 |

| Variant | protein stability index |
| --- | --- |
| ILLVGYPPFWDEKQHRLYKQIKAG | 3.5 |
| ILLVGYPPFWDEMQHRLYKQIKAG | 3.08 |
| ILLVGYPPFWDEEQHRLYKQIKAG | 1.76 |
| ILLVGYPPFWDEAQHRLYKQIKAG | 3.24 |
| ILLVGYPPFWDEFQHRLYKQIKAG | 3.02 |
| ILLVGYPPFWDEQQHRLYKQIKAG | 2.42 |
| ILLVGYPPFWDEPQHRLYKQIKAG | 2.24 |
| ILLVGYPPFWDEIQHRLYKQIKAG | 2.18 |
| ILLVGYPPFWDERQHRLYKQIKAG | 2.19 |
| ILLVGYPPFWDEDQHELYKQIKAG | 2.2 |
| ILLVGYPPFWDEDQHFLYKQIKAG | 2.2 |
| ILLVGYPPFWDEDQHPLYKQIKAG | 1.54 |
| ILLVGYPPFWDEDQHILYKQIKAG | 1.62 |
| ILLVGYPPFWDEDQHNLYKQIKAG | 2.27 |
| ILLVGYPPFWDEDQHALYKQIKAG | 2.61 |
| ILLVGYPPFWDEDQHMLYKQIKAG | 2.07 |
| ILLVGYPPFWDEDQHHLYKQIKAG | 2.12 |
| ILLVGYPPFWDEDQHDLYKQIKAG | 2.63 |
| ILLVGYPPFWDEDQHLLYKQIKAG | 2.27 |
| ILLVGYPPFWDEDQHVLYKQIKAG | 2.67 |
| ILLVGYPPFWDEDQHQLYKQIKAG | 1.84 |
| ILLVGYPPFWDEDQHGLYKQIKAG | 1.64 |
| ILLVGYPPFWDEDQHYLYKQIKAG | 3.24 |
| ILLVGYPPFWDEDQHTLYKQIKAG | 1.29 |

| Variant | protein stability index |
| --- | --- |
| ILLVGYPPFWDEDQHKLYKQIKAG | 1.57 |
| ILLVGYPPFWDEDQHSLYKQIKAG | 2.5 |
| ILLVGYPPFWDEDQHCLYKQIKAG | 2.16 |
| ILLVGYPPFWDEDQHWLYKQIKAG | 1.62 |
| ILLVGYPPFWDEDQFRLYKQIKAG | 2.5 |
| ILLVGYPPFWDEDQWRLYKQIKAG | 2.08 |
| ILLVGYPPFWDEDQKRLYKQIKAG | 1.24 |
| ILLVGYPPFWDEDQCRLYKQIKAG | 3.07 |
| ILLVGYPPFWDEDQSRLYKQIKAG | 2.89 |
| ILLVGYPPFWDEDQPRLYKQIKAG | 2.6 |
| ILLVGYPPFWDEDQQRLYKQIKAG | 2.51 |
| ILLVGYPPFWDEDQDRLYKQIKAG | 2.13 |
| ILLVGYPPFWDEDQERLYKQIKAG | 2.14 |
| ILLVGYPPFWDEDQNRLYKQIKAG | 2.2 |
| ILLVGYPPFWDEDQGRLYKQIKAG | 2.21 |
| ILLVGYPPFWDEDQARLYKQIKAG | 2.55 |
| ILLVGYPPFWDEDQVRLYKQIKAG | 2.84 |
| ILLVGYPPFWDEDQTRLYKQIKAG | 2.8 |
| ILLVGYPPFWDEDQIRLYKQIKAG | 2.31 |
| ILLVGYPPFWDEDQLRLYKQIKAG | 2.16 |
